Consider ten molecules from patent US20250152704A1 (PARAGON THERAPEUTICS, published 2025).

Positions count from the first letter of the chain named. In names and notes the source's numbering stands.

Sequences and labels used below:
B1: Fc Fusion Molecule 5 (Fc fusion)
chain: EVQLLESGGGLVQPGGSLRLSCAASGFTFRSFGMSWVRQAPGKGPEWVSSISGSGSDTLYADSVKGRFTISRDNSKNTLYLQMNSLRPEDTAVYYCTIGGSLSRSSQGTLVTVSSGGGGSDKTHTCPPCPAPELLGGPSVFLFPPKPKDTLYITREPEVTCVVVDVSHEDPEVKFNWYVDGVEVHNAKTKPREEQYNSTYRVVSVLTVLHQDWLNGKEYKCKVSNKALPAPIEKTISKAKGQPREPQVYTLPPSRDELTKNQVSLTCLVKGFYPSDIAVEWESNGQPENNYKTTPPVLDSDGSFFLYSKLTVDKSRWQQGNVFSCSVMHEALKFHYTQKSLSLSPG
notes: Made in CHO cells; also called ABD1-G4S-Efgart
B2: Fc Fusion Molecule 6 (Fc fusion)
chain: DKTHTCPPCPAPELLGGPSVFLFPPKPKDTLYITREPEVTCVVVDVSHEDPEVKFNWYVDGVEVHNAKTKPREEQYNSTYRVVSVLTVLHQDWLNGKEYKCKVSNKALPAPIEKTISKAKGQPREPQVYTLPPSRDELTKNQVSLTCLVKGFYPSDIAVEWESNGQPENNYKTTPPVLDSDGSFFLYSKLTVDKSRWQQGNVFSCSVMHEALKFHYTQKSLSLSPGGGGGSEVQLLESGGGLVQPGGSLRLSCAASGFTFRSFGMSWVRQAPGKGPEWVSSISGSGSDTLYADSVKGRFTISRDNSKNTLYLQMNSLRPEDTAVYYCTIGGSLSRSSQGTLVTVSS
notes: Made in CHO cells; also called Efgart-G4S-ABD1
B3: Fc Fusion Molecule 11 (Fc fusion)
chain 1: EVQLLESGGGLVQPGGSLRLSCAASGFTFRSFGMSWVRQAPGKGPEWVSSISGSGSDTLYADSVKGRFTISRDNSKNTLYLQMNSLRPEDTAVYYCTIGGSLSRSSQGTLVTVSSGGGGSGGGGSGGGGSDKTHTCPPCPAPELLGGPSVFLFPPKPKDTLYITREPEVTCVVVDVSHEDPEVKFNWYVDGVEVHNAKTKPREEQYNSTYRVVSVLTVLHQDWLNGKEYKCKVSNKALPAPIEKTISKAKGQPREPQVCTLPPSRDELTKNQVSLSCAVKGFYPSDIAVEWESNGQPENNYKTTPPVLDSDGSFFLVSKLTVDKSRWQQGNVFSCSVMHEALKFHYTQKSLSLSPG
chain 2: DKTHTCPPCPAPELLGGPSVFLFPPKPKDTLYITREPEVTCVVVDVSHEDPEVKFNWYVDGVEVHNAKTKPREEQYNSTYRVVSVLTVLHQDWLNGKEYKCKVSNKALPAPIEKTISKAKGQPREPQVYTLPPCRDELTKNQVSLWCLVKGFYPSDIAVEWESNGQPENNYKTTPPVLDSDGSFFLYSKLTVDKSRWQQGNVFSCSVMHEALKFHYTQKSLSLSPG
notes: also called ABD1-(G4S)3-Efgart(KIH); ABD1-(G4S)3-Efgart(H)/Efgart(K)
B4: Fc Fusion Molecule 12 (Fc fusion)
chain 1: DKTHTCPPCPAPELLGGPSVFLFPPKPKDTLYITREPEVTCVVVDVSHEDPEVKFNWYVDGVEVHNAKTKPREEQYNSTYRVVSVLTVLHQDWLNGKEYKCKVSNKALPAPIEKTISKAKGQPREPQVCTLPPSRDELTKNQVSLSCAVKGFYPSDIAVEWESNGQPENNYKTTPPVLDSDGSFFLVSKLTVDKSRWQQGNVFSCSVMHEALKFHYTQKSLSLSPGGGGGSGGGGSGGGGSEVQLLESGGGLVQPGGSLRLSCAASGFTFRSFGMSWVRQAPGKGPEWVSSISGSGSDTLYADSVKGRFTISRDNSKNTLYLQMNSLRPEDTAVYYCTIGGSLSRSSQGTLVTVSS
chain 2: B3 chain 2
notes: also called Efgart(KIH)-(G4S)3-ABD1; Efgart(H)-(G4S)3-ABD1/Efgart(K)
B5: Fc Fusion Molecule 41 (Fc fusion)
chain 1: DKTHTCPPCPAPELLGGPSVFLFPPKPKDTLYITREPEVTCVVVDVSHEDPEVKFNWYVDGVEVHNAKTKPREEQYNSTYRVVSVLTVLHQDWLNGKEYKCKVSNKALPAPIEKTISKAKGQPREPQVCTLPPSRDELTKNQVSLSCAVKGFYPSDIAVEWESNGQPENNYKTTPPVLDSDGSFFLVSKLTVDKSRWQQGNVFSCSVMHEALKYHYTQKSLSLSPGGGGGSGGGGSGGGGSGGGGSGGGGSGGGGSEVQLLESGGGLVQPGGSLRLSCAASGFTFRSFGMSWVRQAPGKGPEWVSSISGSGSDTLYADSVKGRFTISRDNSKNTLYLQMNSLRPEDTAVYYCTIGGSLSRSSQGTLVTVSS
chain 2: B3 chain 2 with F214Y
B6: Fc Fusion Molecule 44 (Fc fusion)
chain 1: B5 chain 1 with F288A
chain 2: B3 chain 2 with F214Y
B7: Fc Fusion Molecule 43 (Fc fusion)
chain 1: B4 chain 1 with F214Y, F273A
chain 2: B3 chain 2 with F214Y
B8: Fc Fusion Molecule 46 (Fc fusion)
chain 1: DKTHTCPPCPAPELLGGPSVFLFPPKPKDTLYITREPEVTCVVVDVSHEDPEVKFNWYVDGVEVHNAKTKPREEQYNSTYRVVSVLTVLHQDWLNGKEYKCKVSNKALPAPIEKTISKAKGQPREPQVCTLPPSRDELTKNQVSLSCAVKGFYPSDIAVEWESNGQPENNYKTTPPVLDSDGSFFLVSKLTVDKSRWQQGNVFSCSVMHEALKYHYTQKSLSLSPGGGGGSGGGGSGGGGSGGGGSGGGGSGGGGSGGGGSGGGGSEVQLLESGGGLVQPGGSLRLSCAASGFTFRSAGMSWVRQAPGKGPEWVSSISGSGSDTLYADSVKGRFTISRDNSKNTLYLQMNSLRPEDTAVYYCTIGGSLSRSSQGTLVTVSS
chain 2: B3 chain 2 with F214Y
B9: Fc Fusion Molecule 42 (Fc fusion)
chain 1: B8 chain 1 with A298F
chain 2: B3 chain 2 with F214Y
B10: Fc Fusion Molecule 45 (Fc fusion)
chain 1: DKTHTCPPCPAPELLGGPSVFLFPPKPKDTLYITREPEVTCVVVDVSHEDPEVKFNWYVDGVEVHNAKTKPREEQYNSTYRVVSVLTVLHQDWLNGKEYKCKVSNKALPAPIEKTISKAKGQPREPQVCTLPPSRDELTKNQVSLSCAVKGFYPSDIAVEWESNGQPENNYKTTPPVLDSDGSFFLVSKLTVDKSRWQQGNVFSCSVMHEALKYHYTQKSLSLSPGGGGGSGGGGSGGGGSGGGGSGGGGSGGGGSGGGGSEVQLLESGGGLVQPGGSLRLSCAASGFTFRSAGMSWVRQAPGKGPEWVSSISGSGSDTLYADSVKGRFTISRDNSKNTLYLQMNSLRPEDTAVYYCTIGGSLSRSSQGTLVTVSS
chain 2: B3 chain 2 with F214Y

T1 sequence (P02768 25-609 limits assumed): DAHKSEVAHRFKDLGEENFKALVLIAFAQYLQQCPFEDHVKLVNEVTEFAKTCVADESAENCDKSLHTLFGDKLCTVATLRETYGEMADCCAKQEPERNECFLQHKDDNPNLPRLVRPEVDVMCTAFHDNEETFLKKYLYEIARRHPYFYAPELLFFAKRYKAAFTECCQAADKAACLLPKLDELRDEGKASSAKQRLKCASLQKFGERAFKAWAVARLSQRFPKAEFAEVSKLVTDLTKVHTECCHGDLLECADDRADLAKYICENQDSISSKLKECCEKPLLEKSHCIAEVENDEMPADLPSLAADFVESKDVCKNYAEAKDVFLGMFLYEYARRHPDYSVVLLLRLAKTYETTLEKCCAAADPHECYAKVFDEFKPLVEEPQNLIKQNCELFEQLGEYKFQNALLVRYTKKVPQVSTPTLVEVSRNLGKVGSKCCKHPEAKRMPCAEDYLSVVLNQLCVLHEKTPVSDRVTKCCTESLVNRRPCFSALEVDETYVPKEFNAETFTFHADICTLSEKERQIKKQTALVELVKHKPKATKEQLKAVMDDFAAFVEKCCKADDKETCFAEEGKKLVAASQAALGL

The first assay addresses T1, human serum albumin (human, UniProt P02768 25-609).
T1 construct: also called HSA
The assay is described as follows: SPR (Biacore 8K), Fc fusion captured by anti-human Fc on CM5, HSA as analyte, 25 C, pH 6.0, 1:1 fit. As to the method:
(§1) Following a stabilization period in running buffer, the Fc fusion molecules at 20 nM were captured onto flow cell 2 (active) for 60 sec at a flow rate of 30 uL/min. […] Samples were injected in a multi-cycle manner over freshly captured Fc fusion molecule, by regenerating the capture surfaces with injection of 10 mM glycine pH 1.5 for 30 sec at a flow rate of 30 μL/min. The data was processed and analyzed with Biacore Insight Evaluation Software Version 2.0.15.12933 (GE Healthcare) as follows. […] The responses from the two buffer blank injections were then subtracted from the reference subtracted data (2-1) to yield double-referenced data, which were fit to a 1:1 binding model to determine the apparent association (ka) and dissociation rate constants (kd). Their ratio provided the apparent equilibrium dissociation constant or affinity constant (KD=kd/ka).
(In general: In SPR one partner is held on a chip, and binding of the other changes the refractive index at the surface.)
For B1, the Kd (usually the equilibrium constant for the complex coming apart) was 6.32 nM.

In turn, B2 registered a Kd of 33.8 nM.

With B3, the dissociation constant Kd worked out at 7.26 nM.

In the case of B4, the Kd was 33.4 nM.

A further assay deals with FcRn-GFP. The assay is described as follows: cell-based or functional assay.
Take B5: the “Average (n = 3) Residual FcRn” value came out at 31.

In the case of B6, the “Average (n = 3) Residual FcRn” value amounted to 21.

Consider B7, for which the “Average (n = 3) Residual FcRn” value amounted to 12.

B8: the “Average (n = 3) Residual FcRn” value stood at 44.

On to B9, for which the “Average (n = 3) Residual FcRn” value is 48.

Turning to B10, the “Average (n = 3) Residual FcRn” value amounted to 29.

The target in a further assay is T2, Recombinant in-house Human FcRn protein (human, UniProt P55899 24-297; P61769 21-119, limits assumed).
T2 construct: also called huFCRN; HuFcRn
T2 sequence (P55899 24-297 limits assumed, chain 1 of 2): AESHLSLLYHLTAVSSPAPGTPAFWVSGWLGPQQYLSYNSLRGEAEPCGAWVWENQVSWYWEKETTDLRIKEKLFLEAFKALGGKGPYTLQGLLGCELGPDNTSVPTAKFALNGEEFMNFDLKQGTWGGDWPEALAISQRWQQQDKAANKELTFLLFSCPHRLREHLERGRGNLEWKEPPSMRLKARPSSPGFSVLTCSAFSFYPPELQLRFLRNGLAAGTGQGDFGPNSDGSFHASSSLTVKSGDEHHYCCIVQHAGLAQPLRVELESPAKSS
T2 sequence (P61769 21-119 limits assumed, chain 2 of 2): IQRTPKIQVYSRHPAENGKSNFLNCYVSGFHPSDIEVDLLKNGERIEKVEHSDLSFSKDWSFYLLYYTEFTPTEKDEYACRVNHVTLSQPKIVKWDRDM
The assay is described as follows: SPR (Biacore 8K), Fc fusion captured by anti-human Fc on CM5, huFcRn as analyte, 25 C, pH 6.0, 1:1 fit. Here is the method: as §1
For B1, the Kd is 8.07 nM.

For the molecule B2, the Kd turned out to be 2.1 nM.

Regarding B3, the Kd came to 6.69 nM.

Turning to B4, the Kd came out at 11.3 nM.

A further assay addresses T2, Recombinant in-house Human FcRn protein. The assay is described as follows: SPR (Biacore 8K), Fc fusion captured by anti-human Fc on CM5, huFcRn as analyte, 25 C, pH 7.4, 1:1 fit. As to the method: as §1
For the molecule B1, the Kd was found to be 375 nM.

B2: the dissociation constant Kd is 634 nM.

For B3, the dissociation constant (Kd) is 371 nM.

In the case of B4, the Kd was determined as 492 nM.

The target in a further assay is T1, human serum albumin. Put plainly: SPR (Biacore 8K), Fc fusion captured by anti-human Fc on CM5, HSA as analyte, 25 C, pH 7.4, 1:1 fit. Here is the method:
as §1
For B2, the Kd stood at 45.6 nM.

In turn, B3 displayed a Kd of 12 nM.

As for B4, the affinity, expressed as Kd, was 54.6 nM.
